The values that follow come from patent publication US20240400654A1.

The test concerns the target HRgpA-6H (Porphyromonas gingivalis) (UniProt P28784). As to the kind of experiment: ELISA, coated HRgpA-6H. Background: An ELISA detects its analyte on a solid surface through an enzyme-linked reagent.

Where a chain is given by its changes, count along the chain named. Names may count otherwise. “And” between values parts separate entries of the source, which are not always exact repeats. Identical values can stand only once.

UniProt P28784, sequence (P28784 228-860 limits assumed): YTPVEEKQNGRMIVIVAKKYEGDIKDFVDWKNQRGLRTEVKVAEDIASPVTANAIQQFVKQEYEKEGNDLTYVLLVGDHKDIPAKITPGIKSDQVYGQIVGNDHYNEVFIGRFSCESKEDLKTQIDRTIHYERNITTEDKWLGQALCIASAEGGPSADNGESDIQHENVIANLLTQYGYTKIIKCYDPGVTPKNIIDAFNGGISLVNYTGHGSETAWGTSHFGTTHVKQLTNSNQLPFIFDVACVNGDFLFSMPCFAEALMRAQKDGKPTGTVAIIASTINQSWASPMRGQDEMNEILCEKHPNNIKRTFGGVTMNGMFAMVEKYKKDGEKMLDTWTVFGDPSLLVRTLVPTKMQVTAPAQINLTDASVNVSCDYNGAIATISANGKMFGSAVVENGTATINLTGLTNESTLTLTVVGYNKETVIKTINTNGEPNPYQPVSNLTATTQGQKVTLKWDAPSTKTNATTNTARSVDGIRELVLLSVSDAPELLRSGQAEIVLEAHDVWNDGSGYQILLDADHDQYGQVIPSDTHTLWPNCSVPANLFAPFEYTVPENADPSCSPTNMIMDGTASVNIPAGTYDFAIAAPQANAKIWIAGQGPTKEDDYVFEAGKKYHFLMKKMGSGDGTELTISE

B1: KB001 mouse Fab VL T24K (Fab, V domains shown)
VH: EVQLKQSGPGLVAPSQSLSITCTVSGFSLSIYSVHWVRQPPGKGLEWLGMIWGGGSSDYNSALKSRLSISKDNSKSQVFLKMNSLQTDDTAMYYCARNGNFYAMDYWGQGTSVTVSS
VL: QIVLTQSPAIMSASLGERVTMTCKASSSVSSSFLHWYQQKPGSSPQLWIYSTSNLASGVPARFSGSGSGTSYSLTISSMEAEDAATYYCHQYHHSPYIYTFGGGTKLEIK
Take B1: the OD450 nm was 0.797 and 0.734; the Ratio OD(Variant)/OD(WT) was 1.04 and 0.954.

B2: KB001 mouse Fab VL S57P (Fab, V domains shown)
VH: B1 VH
VL: B1 VL with K24T, S57P
Turning to B2, the OD450 nm stood at 0.858 and the Ratio OD(Variant)/OD(WT) was 1.05.

B3: KB001 mouse Fab VL S57T (Fab, V domains shown)
VH: B1 VH
VL: B1 VL with K24T, S57T
With B3, the OD450 nm stood at 0.843 and the Ratio OD(Variant)/OD(WT) is 1.03.

B4: KB001 mouse Fab VL S28W (Fab, V domains shown)
VH: B1 VH
VL: B1 VL with K24T, S28W
Take B4: the OD450 nm is 0.817 and 0.745; the Ratio OD(Variant)/OD(WT) was 1.09 and 0.993.

B5: KB001 mouse Fab VL S31F (Fab, V domains shown)
VH: B1 VH
VL: B1 VL with K24T, S31F
On to B5, for which the OD450 nm was 0.854 and 0.688 and 0.693; the Ratio OD(Variant)/OD(WT) is 1.01 and 0.814 and 0.82.

B6: KB001 mouse Fab VL S53Q (Fab, V domains shown)
VH: B1 VH
VL: B1 VL with K24T, S53Q
On to B6, for which the OD450 nm is 0.835 and 0.751 and 0.726; the Ratio OD(Variant)/OD(WT) was 1.06 and 0.954 and 0.922.

B7: KB001 mouse Fab VL N54Q (Fab, V domains shown)
VH: B1 VH
VL: B1 VL with K24T, N54Q
Consider B7, for which the OD450 nm amounted to 0.868 and the Ratio OD(Variant)/OD(WT) was found to be 1.11.

B8: KB001 mouse Fab VL S57N (Fab, V domains shown)
VH: B1 VH
VL: B1 VL with K24T, S57N
Regarding B8, the OD450 nm was 0.857 and the Ratio OD(Variant)/OD(WT) was determined as 1.05.

B9: KB001 mouse Fab VL S28V (Fab, V domains shown)
VH: B1 VH
VL: B1 VL with K24T, S28V
As for B9, the OD450 nm was 0.786 and 0.731 and 0.717; the Ratio OD(Variant)/OD(WT) is 1.05 and 0.974 and 0.955.

B10: KB001 mouse Fab VL S26D (Fab, V domains shown)
VH: B1 VH
VL: B1 VL with K24T, S26D
Turning to B10, the OD450 nm turned out to be 0.821 and the Ratio OD(Variant)/OD(WT) is 1.05.

B11: KB001 mouse Fab VL S51G (Fab, V domains shown)
VH: B1 VH
VL: B1 VL with K24T, S51G
For B11, the OD450 nm was 0.915 and 0.777 and 0.851; the Ratio OD(Variant)/OD(WT) was 1.05 and 0.888 and 0.973.

B12: KB001 mouse Fab VL L55N (Fab, V domains shown)
VH: B1 VH
VL: B1 VL with K24T, L55N
As to B12, the OD450 nm was 0.816 and 0.815 and 0.777; the Ratio OD(Variant)/OD(WT) is 1.04 (2×) and 0.992.

B13: KB001 mouse Fab VL S53H (Fab, V domains shown)
VH: B1 VH
VL: B1 VL with K24T, S53H
Consider B13, for which the OD450 nm is 0.827 and 0.777; the Ratio OD(Variant)/OD(WT) was 1.05 and 0.987.

B14: KB001 mouse Fab VL S30F (Fab, V domains shown)
VH: B1 VH
VL: B1 VL with K24T, S30F
In the case of B14, the OD450 nm was determined as 0.911 and the Ratio OD(Variant)/OD(WT) is 1.06.

B15: KB001 mouse Fab VL S30G (Fab, V domains shown)
VH: B1 VH
VL: B1 VL with K24T, S30G
For B15, the OD450 nm was 0.916 and 0.858; the Ratio OD(Variant)/OD(WT) is 1.06 and 0.995.

B16: KB001 mouse Fab VL T52S (Fab, V domains shown)
VH: B1 VH
VL: B1 VL with K24T, T52S
On to B16, for which the OD450 nm came to 0.833 and the Ratio OD(Variant)/OD(WT) was 1.06.

B17: KB001 mouse Fab VL S31Y (Fab, V domains shown)
VH: B1 VH
VL: B1 VL with K24T, S31Y
Consider B17, for which the OD450 nm came to 0.849 and the Ratio OD(Variant)/OD(WT) was determined as 1.

B18: KB001 mouse Fab VL N54S (Fab, V domains shown)
VH: B1 VH
VL: B1 VL with K24T, N54S
For the molecule B18, the OD450 nm was 0.835 and 0.732 and 0.776; the Ratio OD(Variant)/OD(WT) was 1.07 and 0.934 and 0.99.

B19: KB001 mouse Fab VL S28G (Fab, V domains shown)
VH: B1 VH
VL: B1 VL with K24T, S28G
On to B19, for which the OD450 nm was found to be 0.818 and the Ratio OD(Variant)/OD(WT) is 1.09.

B20: KB001 mouse Fab VL T24E (Fab, V domains shown)
VH: B1 VH
VL: B1 VL with K24E
On to B20, for which the OD450 nm was 0.852 and 0.81; the Ratio OD(Variant)/OD(WT) is 1.11 and 1.05.

B21: KB001 mouse Fab VL A25T (Fab, V domains shown)
VH: B1 VH
VL: B1 VL with K24T, A25T
In the case of B21, the OD450 nm is 0.823 and 0.801; the Ratio OD(Variant)/OD(WT) is 1.05 and 1.02.

B22: KB001 mouse Fab VL S53K (Fab, V domains shown)
VH: B1 VH
VL: B1 VL with K24T, S53K
As for B22, the OD450 nm was 0.841 and the Ratio OD(Variant)/OD(WT) was 1.07.

B23: KB001 mouse Fab VL S26N (Fab, V domains shown)
VH: B1 VH
VL: B1 VL with K24T, S26N
Take B23: the OD450 nm is 0.823 and 0.749; the Ratio OD(Variant)/OD(WT) was 1.05 and 0.957.

B24: KB001 mouse Fab VL T24H (Fab, V domains shown)
VH: B1 VH
VL: B1 VL with K24H
Turning to B24, the OD450 nm was found to be 0.795 and the Ratio OD(Variant)/OD(WT) came out at 1.03.

B25: KB001 mouse Fab VL N54R (Fab, V domains shown)
VH: B1 VH
VL: B1 VL with K24T, N54R
Take B25: the OD450 nm was found to be 0.876 and the Ratio OD(Variant)/OD(WT) was found to be 1.12.

B26: KB001 mouse Fab VL S53N (Fab, V domains shown)
VH: B1 VH
VL: B1 VL with K24T, S53N
As for B26, the OD450 nm was 0.838 and 0.707; the Ratio OD(Variant)/OD(WT) is 1.06 and 0.898.

B27: KB001 mouse Fab VL S31P (Fab, V domains shown)
VH: B1 VH
VL: B1 VL with K24T, S31P
In the case of B27, the OD450 nm was 0.87 and 0.875 and 0.856; the Ratio OD(Variant)/OD(WT) is 1.03 and 1.04 and 1.01.

B28: KB001 mouse Fab VL S28P (Fab, V domains shown)
VH: B1 VH
VL: B1 VL with K24T, S28P
Turning to B28, the OD450 nm is 0.808 and 0.726; the Ratio OD(Variant)/OD(WT) is 1.08 and 0.967.

B29: KB001 mouse Fab VL S57R (Fab, V domains shown)
VH: B1 VH
VL: B1 VL with K24T, S57R
For the molecule B29, the OD450 nm is 0.845 and 0.849; the Ratio OD(Variant)/OD(WT) turned out to be 1.04.

B30: KB001 mouse Fab VL T52A (Fab, V domains shown)
VH: B1 VH
VL: B1 VL with K24T, T52A
In the case of B30, the Ratio OD(Variant)/OD(WT) was 1.17 and 1.08 (2×) and 0.993.

B31: KB001 mouse Fab VL S28K (Fab, V domains shown)
VH: B1 VH
VL: B1 VL with K24T, S28K
On to B31, for which the OD450 nm was 0.801 and the Ratio OD(Variant)/OD(WT) stood at 1.07.

B32: KB001 mouse Fab VL S27K (Fab, V domains shown)
VH: B1 VH
VL: B1 VL with K24T, S27K
Turning to B32, the OD450 nm is 0.783 and 0.745 and 0.697; the Ratio OD(Variant)/OD(WT) was 1.04 and 0.993 and 0.929.

B33: KB001 mouse Fab VL A25F (Fab, V domains shown)
VH: B1 VH
VL: B1 VL with K24T, A25F
As to B33, the OD450 nm is 0.818 and 0.827 and 0.775; the Ratio OD(Variant)/OD(WT) was 1.04 and 1.06 and 0.99.

B34: KB001 mouse Fab VL L55P (Fab, V domains shown)
VH: B1 VH
VL: B1 VL with K24T, L55P
For the molecule B34, the OD450 nm is 0.827 and 0.764 and 0.724; the Ratio OD(Variant)/OD(WT) is 1.06 and 0.975 and 0.924.

B35: KB001 mouse Fab VL S57E (Fab, V domains shown)
VH: B1 VH
VL: B1 VL with K24T, S57E
As for B35, the OD450 nm was 0.843 and the Ratio OD(Variant)/OD(WT) is 1.03.

B36: KB001 mouse Fab VL S31T (Fab, V domains shown)
VH: B1 VH
VL: B1 VL with K24T, S31T
For the molecule B36, the OD450 nm was 0.859 and 0.74 and 0.782; the Ratio OD(Variant)/OD(WT) is 1.02 and 0.876 and 0.925.

B37: KB001 mouse Fab VL S31E (Fab, V domains shown)
VH: B1 VH
VL: B1 VL with K24T, S31E
B37: the OD450 nm is 0.903 and 0.798; the Ratio OD(Variant)/OD(WT) is 1.07 and 0.944.
